From patent US20200181259A1 (Innovent, published 2020)
Changes are numbered by the printed parent chain.

T1: mouse CD47-Fc (mouse, UniProt Q61735 19-140, limits assumed)
T1 construct: not shown: Fc part
T1 sequence (looked up): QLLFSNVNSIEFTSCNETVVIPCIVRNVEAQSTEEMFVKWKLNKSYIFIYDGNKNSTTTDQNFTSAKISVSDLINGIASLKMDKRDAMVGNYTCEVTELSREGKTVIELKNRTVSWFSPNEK

B1: ADI-30794 in IgG1 format produced in yeast cells (antibody, V domains shown)
VH: EVQLLESGGGLVQPGGSLRLSCAASGFTFGNYAMSWVRQAPGKGLEWVSAISGSGGKTYYADSVKGRFTISRDNSKNTLYLQMNSLRAEDTAVYYCAKTAIYYGFDLWGRGTLVTVSS
VL: DIQLTQSPSSVSASVGDRVTITCRASQGISSWLAWYQQKPGKAPKLLIYGASSLQSGVPSRFSGSGSGTDFTLTISSLQPEDFATYYCQQKNPFPPFFGGGTKVEIKR
notes: also called ADI 30794-IgG1
B2: ADI-26591 in IgG1 format, expressed in yeast (antibody, V domains shown)
VH: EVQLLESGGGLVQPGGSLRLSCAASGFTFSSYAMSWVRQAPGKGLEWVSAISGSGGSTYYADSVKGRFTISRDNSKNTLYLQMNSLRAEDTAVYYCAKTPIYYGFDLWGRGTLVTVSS
VL: B1 VL with F97T
notes: also called ADI 26591-IgG1
B3: ADI-30793 in IgG1 format produced in yeast cells (antibody, V domains shown)
VH: B1 VH with G30D, N31S, S35T, A50V, A100H, I101L
VL: B1 VL
notes: also called ADI 30793-IgG1
B4: ADI-30793 in Fab format (Fab, V domains shown)
VH: B1 VH with G30D, N31S, S35T, A50V, A100H, I101L
VL: B1 VL
B5: ADI-30794 in Fab format (Fab, V domains shown)
VH: B1 VH
VL: B1 VL
B6: ADI-26624 in Fab format (Fab, V domains shown)
VH: QVQLQESGPGLVKPSETLSLTCTVSGGSISSYYWSWIRQPPGKGLEWIGYIYYSGSTNYNPSLKSRVTISVDTSKNQFSLKLSSVTAADTAVYYCARGKSAFDPWGQGTLVTVSS
VL: DIQMTQSPSSVSASVGDRVTITCRASQGISRWLAWYQQKPGKAPKLLIYAASSLQSGVPSRFSGSGSGTDFTLTISSLQPEDFATYYCQQADLHPPLTFGGGTKVEIKR
B7: ADI-29336 in Fab format (Fab, V domains shown)
VH: B6 VH with S31N, Y50T, N58R, D103N
VL: B6 VL
B8: ADI-26624 in IgG1 format produced in yeast cells (antibody)
heavy: not shown
light: DIQMTQSPSSVSASVGDRVTITCRASQGISRWLAWYQQKPGKAPKLLIYAASSLQSGVPSRFSGSGSGTDFTLTISSLQPEDFATYYCQQADLHPPLTFGGGTKVEIKRTVAAPSVFIFPPSDEQLKSGTASVVCLLNNFYPREAKVQWKVDNALQSGNSQESVTEQDSKDSTYSLSSTLTLSKADYEKHKVYACEVTHQGLSSPVTKSFNRGEC
notes: also called ADI26624-IgG1
B9: ADI-29336 in IgG1 format produced in yeast cells (antibody)
heavy: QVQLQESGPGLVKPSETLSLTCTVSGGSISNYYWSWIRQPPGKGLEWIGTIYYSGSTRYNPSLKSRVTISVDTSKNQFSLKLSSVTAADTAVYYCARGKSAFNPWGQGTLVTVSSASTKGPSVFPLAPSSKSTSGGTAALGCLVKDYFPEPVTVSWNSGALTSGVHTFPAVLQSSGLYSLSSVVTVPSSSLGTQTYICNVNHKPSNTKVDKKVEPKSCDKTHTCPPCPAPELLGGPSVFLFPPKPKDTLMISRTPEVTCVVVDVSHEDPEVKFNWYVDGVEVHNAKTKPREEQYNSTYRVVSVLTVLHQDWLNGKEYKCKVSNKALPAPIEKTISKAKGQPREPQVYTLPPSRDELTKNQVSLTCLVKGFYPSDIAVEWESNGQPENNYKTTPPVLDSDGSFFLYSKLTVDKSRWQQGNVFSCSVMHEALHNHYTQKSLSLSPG
light: B8 light
notes: also called ADI29336-IgG1
B10: ADI-29341 in Fab format (Fab, V domains shown)
VH: B6 VH with S30E, S31H, S100T, A101G, F102S, D103A, P104A
VL: B1 VL with L4M, S31R, G50A, K91T, N92V, P93S, P96I, F97T
B11: ADI-29341 in IgG1 format produced in yeast cells (antibody)
heavy: not shown
light: DIQMTQSPSSVSASVGDRVTITCRASQGISRWLAWYQQKPGKAPKLLIYAASSLQSGVPSRFSGSGSGTDFTLTISSLQPEDFATYYCQQTVSFPITFGGGTKVEIKRTVAAPSVFIFPPSDEQLKSGTASVVCLLNNFYPREAKVQWKVDNALQSGNSQESVTEQDSKDSTYSLSSTLTLSKADYEKHKVYACEVTHQGLSSPVTKSFNRGEC
notes: also called ADI29341-IgG1
B12: ADI-29371 in Fab format (Fab, V domains shown)
VH: EVQLLESGGGLVQPGGSLRLSCAASGFTFGNYAMSWVRQAPGKGLEWVSMISGGGSTYYADSVKGRFTISRDNSKNTLYLQMNSLRAEDTAVYYCAKTPIYYGFDLWGRGTLVTVSS
VL: B1 VL with F97T
B13: ADI-29371 in IgG1 format produced in yeast cells (antibody)
heavy: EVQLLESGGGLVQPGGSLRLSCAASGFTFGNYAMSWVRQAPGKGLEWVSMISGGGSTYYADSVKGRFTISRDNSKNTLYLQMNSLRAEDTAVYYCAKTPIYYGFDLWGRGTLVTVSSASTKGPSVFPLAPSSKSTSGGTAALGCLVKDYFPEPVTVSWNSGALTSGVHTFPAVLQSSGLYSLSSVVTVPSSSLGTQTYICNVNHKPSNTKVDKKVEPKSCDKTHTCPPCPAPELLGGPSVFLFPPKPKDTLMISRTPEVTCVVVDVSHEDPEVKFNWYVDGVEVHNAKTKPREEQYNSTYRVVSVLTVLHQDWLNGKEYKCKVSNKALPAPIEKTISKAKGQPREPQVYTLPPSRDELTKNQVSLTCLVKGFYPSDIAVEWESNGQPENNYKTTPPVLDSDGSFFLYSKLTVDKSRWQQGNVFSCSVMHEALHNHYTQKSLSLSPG
light: B11 light with M4L, R31S, A50G, T91K, V92N, S93P, I96P
notes: also called ADI 29371-IgG1
B14: ADI-26624 in IgG4 format produced in CHO cells (antibody)
heavy: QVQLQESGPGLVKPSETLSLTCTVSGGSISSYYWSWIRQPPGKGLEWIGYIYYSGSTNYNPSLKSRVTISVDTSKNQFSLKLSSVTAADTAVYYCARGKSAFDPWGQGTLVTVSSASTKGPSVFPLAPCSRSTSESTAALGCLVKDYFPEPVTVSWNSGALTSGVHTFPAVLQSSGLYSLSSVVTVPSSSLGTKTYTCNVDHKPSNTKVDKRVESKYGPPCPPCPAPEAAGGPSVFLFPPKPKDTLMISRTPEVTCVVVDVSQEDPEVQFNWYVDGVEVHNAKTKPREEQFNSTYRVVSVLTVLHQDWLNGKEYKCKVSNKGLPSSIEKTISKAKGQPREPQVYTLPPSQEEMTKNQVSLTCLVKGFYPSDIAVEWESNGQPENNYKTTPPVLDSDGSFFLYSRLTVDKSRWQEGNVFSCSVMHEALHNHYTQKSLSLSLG
light: B8 light
notes: also called ADI26624-IgG4
B15: ADI-29336 in IgG4 format produced in CHO cells (antibody)
heavy: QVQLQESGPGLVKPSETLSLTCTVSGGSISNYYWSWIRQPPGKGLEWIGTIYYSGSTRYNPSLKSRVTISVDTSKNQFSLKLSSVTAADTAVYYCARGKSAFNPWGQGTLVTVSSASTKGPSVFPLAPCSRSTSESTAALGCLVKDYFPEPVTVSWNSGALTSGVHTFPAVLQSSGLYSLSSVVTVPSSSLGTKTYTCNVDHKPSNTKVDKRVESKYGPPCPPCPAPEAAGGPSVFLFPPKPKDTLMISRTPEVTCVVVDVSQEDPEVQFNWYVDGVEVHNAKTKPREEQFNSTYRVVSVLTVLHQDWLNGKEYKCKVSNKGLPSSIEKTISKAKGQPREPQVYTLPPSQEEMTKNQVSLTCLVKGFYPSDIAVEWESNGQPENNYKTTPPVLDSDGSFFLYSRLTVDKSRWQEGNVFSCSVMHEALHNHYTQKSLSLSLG
light: B8 light
notes: also called ADI29336-IgG4
B16: ADI-29341 in IgG4 format produced in CHO cells (antibody)
heavy: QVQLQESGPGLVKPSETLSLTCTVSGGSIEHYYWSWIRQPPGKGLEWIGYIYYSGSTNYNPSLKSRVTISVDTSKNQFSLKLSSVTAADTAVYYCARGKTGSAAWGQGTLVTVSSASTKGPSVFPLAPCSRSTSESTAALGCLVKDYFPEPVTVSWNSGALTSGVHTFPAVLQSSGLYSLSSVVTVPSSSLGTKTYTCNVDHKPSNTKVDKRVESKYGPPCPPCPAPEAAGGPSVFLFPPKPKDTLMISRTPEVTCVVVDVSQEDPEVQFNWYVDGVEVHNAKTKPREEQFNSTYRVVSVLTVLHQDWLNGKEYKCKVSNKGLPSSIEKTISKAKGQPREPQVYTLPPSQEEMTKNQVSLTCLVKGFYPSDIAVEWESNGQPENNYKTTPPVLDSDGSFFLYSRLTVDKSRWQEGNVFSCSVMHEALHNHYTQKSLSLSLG
light: B11 light
notes: also called ADI29341-IgG4
B17: ADI-29371 in IgG4 format produced in CHO cells (antibody)
heavy: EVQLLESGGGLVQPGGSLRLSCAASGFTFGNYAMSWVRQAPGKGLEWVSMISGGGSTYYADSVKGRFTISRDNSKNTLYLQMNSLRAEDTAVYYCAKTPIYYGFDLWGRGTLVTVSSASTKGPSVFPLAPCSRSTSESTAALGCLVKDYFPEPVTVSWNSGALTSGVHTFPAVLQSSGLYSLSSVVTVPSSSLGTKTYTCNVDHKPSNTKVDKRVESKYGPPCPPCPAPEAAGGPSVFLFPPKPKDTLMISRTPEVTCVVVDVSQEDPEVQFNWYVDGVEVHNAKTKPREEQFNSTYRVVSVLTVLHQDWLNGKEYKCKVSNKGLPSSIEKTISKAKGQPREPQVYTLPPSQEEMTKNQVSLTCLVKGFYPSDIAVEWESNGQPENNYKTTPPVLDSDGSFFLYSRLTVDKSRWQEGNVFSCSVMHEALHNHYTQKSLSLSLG
light: B11 light with M4L, R31S, A50G, T91K, V92N, S93P, I96P
notes: also called ADI 29371-IgG4

Assays:
[1] = biological target: T2, human CD47 overexpressed on CHO cells (human, UniProt Q08722 19-292); assay: flow cytometry on CHO-hCD47 cells, PE anti-human IgG
T2 construct: CHO cells transfected with pCHO1.0 bearing a human CD47 cDNA (Sino Biological); also called hCD47; CHO-hCD47 cells
Procedure: Then the cells were washed at least two times and incubated with a secondary antibody (PE-labelled goat anti-human IgG antibody, Southern Biotech, final concentration of 5 μg/ml) in PBS with 0.1% BSA on ice for 30 min (in dark). The cells were washed at least two times and analyzed by flow cytometry. Flow cytometry was performed on Accuri C6 System (BD Biosciences) and a concentration-dependent graph was fitted with GraphPad, according to MFI of the cells.

mouse CD47-Fc [2] = biological target: T1, mouse CD47-Fc; assay: bio-light interferometry (ForteBio), IgG1 on AHQ tip, mouse CD47-Fc in solution, bivalent
Human CD47-Fc [3] = biological target: T3, Human CD47-Fc (human, UniProt Q08722 19-139, limits assumed); assay: bio-light interferometry (ForteBio), IgG1 on AHQ tip, human CD47-Fc 100 nM in solution, bivalent
T3 construct: the whole entry is named here; also called human CD47 (hCD47); CD47 antigen; not shown: Fc part

cynomolgus CD47-Fc = biological target: T4, cynomolgus CD47-Fc (cynomolgus, UniProt A0A2K5X523 19-139); assay: bio-light interferometry (ForteBio), IgG1 on AHQ tip, cynomolgus CD47-Fc 100 nM in solution, bivalent
T4 construct: not shown: Fc part

mouse CD47-Fc [4] = biological target: T1, mouse CD47-Fc; assay: bio-light interferometry (ForteBio), IgG1 on AHQ tip, mouse CD47-Fc 100 nM in solution, bivalent
Procedure: In brief, Sensors were equilibrated off-line in assay buffer for 30 min and then tested on-line for 60 sec to establish the base line. The purified antibody obtained as described above was loaded on-line onto AHQ sensor (ForteBio) to perform ForteBio affinity measurement. Then, the sensor loaded with the antibody was exposed to 100 nM of CD47 antigen for 5 min, followed by transferring the sensor into the assay buffer for 5 min to measure the dissociation rate. A kinetics analysis was performed using the 1:1 binding model.

Human CD47-Fc [5] = biological target: T3, Human CD47-Fc; assay: bio-light interferometry (ForteBio), human CD47-Fc on AHQ tip, Fab 100 nM in solution, monovalent
[6] = biological target: T2, human CD47 overexpressed on CHO cells; assay: flow cytometry competition on CHO-hCD47 cells against 200 nM mouse Fc-labelled SIRPα
Procedure: Then the cells were washed 3 times and subsequently incubated with a secondary antibody, goat-anti-mouse IgG-APC (Allophycocyanin) (Biolegend), in PBS with 0.1% BSA on ice for 30 min (in dark). Cells were washed 3 times. Flow cytometry assay was performed on Accuri C6 System (BD Biosciences) and MFI was calculated with C6 software.

| Binder | EC50 [1] [nM] | binding result (mouse CD47-Fc [2]) | Kd (Human CD47-Fc [3]) [nM] | Kd (Human CD47-Fc [5]) [nM] | IC50 [6] [nM] | further results |
| --- | --- | --- | --- | --- | --- | --- |
| B1 | 3.7 | no binding (tested: 100 nM) | 0.562 | – | – | – |
| B2 | 3.77 | no binding (tested: 100 nM) | 5.38 | – | – | Kd (cynomolgus CD47-Fc): 3.39 nM |
| B3 | 2.92 | – | 0.632 | – | – | Kd (mouse CD47-Fc [4]): 4.57 nM; Kd (cynomolgus CD47-Fc): 0.584 nM |
| B4 | – | – | – | 9.34 | – | – |
| B5 | – | – | – | 3.13 | – | – |
| B6 | – | – | – | 65.8 | – | – |
| B7 | – | – | – | 1.32 | – | – |
| B8 | 2.25 | no binding (tested: 100 nM) | 1.05 | – | 11.2 | – |
| B9 | 6.72 | no binding (tested: 100 nM) | 0.477 | – | 8.55 | Kd (cynomolgus CD47-Fc): 0.544 nM |
| B10 | – | – | – | 4.62 | – | – |
| B11 | 3.34 | no binding (tested: 100 nM) | 0.501 | – | 2.48 | – |
| B12 | – | – | – | 218 | – | – |
| B13 | 2.13 | no binding (tested: 100 nM) | 1.95 | – | – | Kd (cynomolgus CD47-Fc): 1.41 nM |
| B14 | – | – | – | – | 1.04 | – |
| B15 | 2.48 | – | – | – | 1.39 | – |
| B16 | 1.89 | – | – | – | 0.604 | – |
| B17 | 2.31 | – | – | – | – | – |
